Reference: patent US20160195533

What was measured:
[1] = molecular target: Flag-tagged Snail1 (pCMV-Tag2B N-terminal Flag-tagged Snail1 expression vector, Addgene)
[2] = molecular target: Strep-tagged Snail1 (pEXPR-IBA105-Snail1)
Strep-tagged Snail1 (pEXPR-IBA105-Snail1), sequence (chain, as listed by the source): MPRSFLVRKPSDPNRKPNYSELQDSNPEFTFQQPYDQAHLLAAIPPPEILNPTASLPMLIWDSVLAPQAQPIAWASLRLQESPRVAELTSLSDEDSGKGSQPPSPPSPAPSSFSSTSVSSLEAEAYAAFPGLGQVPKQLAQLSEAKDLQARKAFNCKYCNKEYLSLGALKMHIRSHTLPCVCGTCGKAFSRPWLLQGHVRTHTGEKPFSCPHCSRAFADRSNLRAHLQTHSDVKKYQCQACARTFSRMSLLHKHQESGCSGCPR

Flag-tagged Snail1 (pCMV-Tag2B N-terminal Flag-tagged Snail1 expression vector, Addgene), sequence (chain, as listed by the source): as above

Row | Protein | Snail1 stability, anti-Flag immunoblot (HEK293T) [1] | other results
1 | 2× Strep-tagged EPRS (pEXPR-2×IBA105-EPRS) (protein) MATLSLTVNSGDPPLGALLAVEHVKDDVSISVEEGKENILHVSENVIFTDVNSILRYLARVATTAGLYGSNLMEHTEIDHWLEFSATKLSSCDSFTSTINELNHCLSLRTYLVGNSLSLADLCVWATLKGNAAWQEQLKQKKAPVHVKRWFGFLEAQQAFQSVGTKWDVSTTKARVAPEKKQDVGKFVELPGAEMGKVTVRFPPEASGYLHIGHAKAALLNQHYQVNFKGKLIMRFDDTNPEKEKEDFEKVILEDVAMLHIKPDQFTYTSDHFETIMKYAEKLIQEGKAYVDDTPAEQMKAEREQRIDSKHRKNPIEKNLQMWEEMKKGSQFGQSCCLRAKIDMSSNNGCMRDPTLYRCKIQPHPRTGNKYNVYPTYDFACPIVDSIEGVTHALRTTEYHDRDEQFYWIIEALGIRKPYIWEYSRLNLNNTVLSKRKLTWFVNEGLVDGWDDPRFPTVRGVLRRGMTVEGLKQFIAAQGSSRSVVNMEWDKIWAFNKKVIDPVAPRYVALLKKEVIPVNVPEAQEEMKEVAKHPKNPEVGLKPVWYSPKVFIEGADAETFSEGEMVTFINWGNLNITKIHKNADGKIISLDAKLNLENKDYKKTTKVTWLAETTHALPIPVICVTYEHLITKPVLGKDEDFKQYVNKNSKHEELMLGDPCLKDLKKGDIIQLQRRGFFICDQPYEPVSPYSCKEAPCVLIYIPDGHTKEMPTSGSKEKTKVEATKNETSAPFKERPTPSLNNNCTTSEDSLVLYNRVAVQGDVVRELKAKKAPKEDVDAAVKQLLSLKAEYKEKTGQEYKPGNPPAEIGQNISSNSSASILESKSLYDEVAAQGEVVRKLKAEKSPKAKINEAVECLLSLKAQYKEKTGKEYIPGQPPLSQSSDSSPTRNSEPAGLETPEAKVLFDKVASQGEVVRKLKTEKAPKDQVDIAVQELLQLKAQYKSLIGVEYKPVSATGAEDKDKKKKEKENKSEKQNKPQKQNDGQRKDPSKNQGGGLSSSGAGEGQGPKKQTRLGLEAKKEENLADWYSQVITKSEMIEYHDISGCYILRPWAYAIWEAIKDFFDAEIKKLGVENCYFPMFVSQSALEKEKTHVADFAPEVAWVTRSGKTELAEPIAIRPTSETVMYPAYAKWVQSHRDLPIKLNQWCNVVRWEFKHPQPFLRTREFLWQEGHSAFATMEEAAEEVLQILDLYAQVYEELLAIPVVKGRKTEKEKFAGGDYTTTIEAFISASGRAIQGGTSHHLGQNFSKMFEIVFEDPKIPGEKQFAYQNSWGLTTRTIGVMTMVHGDNMGLVLPPRVACVQVVIIPCGITNALSEEDKEALIAKCNDYRRRLLSVNIRVRADLRDNYSPGWKFNHWELKGVPIRLEVGPRDMKSCQFVAVRRDTGEKLTVAENEAETKLQAILEDIQVTLFTRASEDLKTHMVVANTMEDFQKILDSGKIVQIPFCGEIDCEDWIKKTTARDQDLEPGAPSMGAKSLCIPFKPLCELQPGAKCVCGKNPAKYYTLFGRSY |  | protein expression level of Snail1, anti-Flag immunoblot (HEK293T) [1]: the protein expression level of Snail1 increased more when overexpressed together with EPRS through co-transfection than when overexpressed alone
2 | Flag-tagged EPRS (human Flag-tagged EPRS expression vector, Origene) (protein) MATLSLTVNSGDPPLGALLAVEHVKDDVSISVEEGKENILHVSENVIFTDVNSILRYLARVATTAGLYGSNLMEHTEIDHWLEFSATKLSSCDSFTSTINELNHCLSLRTYLVGNSLSLADLCVWATLKGNAAWQEQLKQKKAPVHVKRWFGFLEAQQAFQSVGTKWDVSTTKARVAPEKKQDVGKFVELPGAEMGKVTVRFPPEASGYLHIGHAKAALLNQHYQVNFKGKLIMRFDDTNPEKEKEDFEKVILEDVAMLHIKPDQFTYTSDHFETIMKYAEKLIQEGKAYVDDTPAEQMKAEREQRIDSKHRKNPIEKNLQMWEEMKKGSQFGQSCCLRAKIDMSSNNGCMRDPTLYRCKIQPHPRTGNKYNVYPTYDFACPIVDSIEGVTHALRTTEYHDRDEQFYWIIEALGIRKPYIWEYSRLNLNNTVLSKRKLTWFVNEGLVDGWDDPRFPTVRGVLRRGMTVEGLKQFIAAQGSSRSVVNMEWDKIWAFNKKVIDPVAPRYVALLKKEVIPVNVPEAQEEMKEVAKHPKNPEVGLKPVWYSPKVFIEGADAETFSEGEMVTFINWGNLNITKIHKNADGKIISLDAKLNLENKDYKKTTKVTWLAETTHALPIPVICVTYEHLITKPVLGKDEDFKQYVNKNSKHEELMLGDPCLKDLKKGDIIQLQRRGFFICDQPYEPVSPYSCKEAPCVLIYIPDGHTKEMPTSGSKEKTKVEATKNETSAPFKERPTPSLNNNCTTSEDSLVLYNRVAVQGDVVRELKAKKAPKEDVDAAVKQLLSLKAEYKEKTGQEYKPGNPPAEIGQNISSNSSASILESKSLYDEVAAQGEVVRKLKAEKSPKAKINEAVECLLSLKAQYKEKTGKEYIPGQPPLSQSSDSSPTRNSEPAGLETPEAKVLFDKVASQGEVVRKLKTEKAPKDQVDIAVQELLQLKAQYKSLIGVEYKPVSATGAEDKDKKKKEKENKSEKQNKPQKQNDGQRKDPSKNQGGGLSSSGAGEGQGPKKQTRLGLEAKKEENLADWYSQVITKSEMIEYHDISGCYILRPWAYAIWEAIKDFFDAEIKKLGVENCYFPMFVSQSALEKEKTHVADFAPEVAWVTRSGKTELAEPIAIRPTSETVMYPAYAKWVQSHRDLPIKLNQWCNVVRWEFKHPQPFLRTREFLWQEGHSAFATMEEAAEEVLQILDLYAQVYEELLAIPVVKGRKTEKEKFAGGDYTTTIEAFISASGRAIQGGTSHHLGQNFSKMFEIVFEDPKIPGEKQFAYQNSWGLTTRTIGVMTMVHGDNMGLVLPPRVACVQVVIIPCGITNALSEEDKEALIAKCNDYRRRLLSVNIRVRADLRDNYSPGWKFNHWELKGVPIRLEVGPRDMKSCQFVAVRRDTGEKLTVAENEAETKLQAILEDIQVTLFTRASEDLKTHMVVANTMEDFQKILDSGKIVQIPFCGEIDCEDWIKKTTARDQDLEPGAPSMGAKSLCIPFKPLCELQPGAKCVCGKNPAKYYTLFGRSY |  | ubiquitination of Snail1 (streptavidin pull-down, anti-HA immunoblot) [2]: the ubiquitination was reduced in the EPRS overexpressed experimental group
3 | Strep-tagged WHEP-PRS domain of EPRS (pEXPR-IBA105-PRS) (protein) VEATKNETSAPFKERPTPSLNNNCTTSEDSLVLYNRVAVQGDVVRELKAKKAPKEDVDAAVKQLLSLKAEYKEKTGQEYKPGNPPAEIGQNISSNSSASILESKSLYDEVAAQGEVVRKLKAEKSPKAKINEAVECLLSLKAQYKEKTGKEYIPGQPPLSQSSDSSPTRNSEPAGLETPEAKVLFDKVASQGEVVRKLKTEKAPKDQVDIAVQELLQLKAQYKSLIGVEYKPVSATGAEDKDKKKKEKENKSEKQNKPQKQNDGQRKDPSKNQGGGLSSSGAGEGQGPKKQTRLGLEAKKEENLADWYSQVITKSEMIEYHDISGCYILRPWAYAIWEAIKDFFDAEIKKLGVENCYFPMFVSQSALEKEKTHVADFAPEVAWVTRSGKTELAEPIAIRPTSETVMYPAYAKWVQSHRDLPIKLNQWCNVVRWEFKHPQPFLRTREFLWQEGHSAFATMEEAAEEVLQILDLYAQVYEELLAIPVVKGRKTEKEKFAGGDYTTTIEAFISASGRAIQGGTSHHLGQNFSKMFEIVFEDPKIPGEKQFAYQNSWGLTTRTIGVMTMVHGDNMGLVLPPRVACVQVVIIPCGITNALSEEDKEALIAKCNDYRRRLLSVNIRVRADLRDNYSPGWKFNHWELKGVPIRLEVGPRDMKSCQFVAVRRDTGEKLTVAENEAETKLQAILEDIQVTLFTRASEDLKTHMVVANTMEDFQKILDSGKIVQIPFCGEIDCEDWIKKTTARDQDLEPGAPSMGAKSLCIPFKPLCELQPGAKCVCGKNPAKYYTLFGRSY | the WHEP-PRS fragment rather than ERS-WHEP fragment in the EPRS more contributed to the Snail1 stability | 
4 | Strep-tagged ERS-WHEP domain of EPRS (pEXPR-IBA105-ERS) (protein) MATLSLTVNSGDPPLGALLAVEHVKDDVSISVEEGKENILHVSENVIFTDVNSILRYLARVATTAGLYGSNLMEHTEIDHWLEFSATKLSSCDSFTSTINELNHCLSLRTYLVGNSLSLADLCVWATLKGNAAWQEQLKQKKAPVHVKRWFGFLEAQQAFQSVGTKWDVSTTKARVAPEKKQDVGKFVELPGAEMGKVTVRFPPEASGYLHIGHAKAALLNQHYQVNFKGKLIMRFDDTNPEKEKEDFEKVILEDVAMLHIKPDQFTYTSDHFETIMKYAEKLIQEGKAYVDDTPAEQMKAEREQRIDSKHRKNPIEKNLQMWEEMKKGSQFGQSCCLRAKIDMSSNNGCMRDPTLYRCKIQPHPRTGNKYNVYPTYDFACPIVDSIEGVTHALRTTEYHDRDEQFYWIIEALGIRKPYIWEYSRLNLNNTVLSKRKLTWFVNEGLVDGWDDPRFPTVRGVLRRGMTVEGLKQFIAAQGSSRSVVNMEWDKIWAFNKKVIDPVAPRYVALLKKEVIPVNVPEAQEEMKEVAKHPKNPEVGLKPVWYSPKVFIEGADAETFSEGEMVTFINWGNLNITKIHKNADGKIISLDAKLNLENKDYKKTTKVTWLAETTHALPIPVICVTYEHLITKPVLGKDEDFKQYVNKNSKHEELMLGDPCLKDLKKGDIIQLQRRGFFICDQPYEPVSPYSCKEAPCVLIYIPDGHTKEMPTSGSKEKTKVEATKNETSAPFKERPTPSLNNNCTTSEDSLVLYNRVAVQGDVVRELKAKKAPKEDVDAAVKQLLSLKAEYKEKTGQEYKPGNPPAEIGQNISSNSSASILESKSLYDEVAAQGEVVRKLKAEKSPKAKINEAVECLLSLKAQYKEKTGKEYIPGQPPLSQSSDSSPTRNSEPAGLETPEAKVLFDKVASQGEVVRKLKTEKAPKDQVDIAVQELLQLKAQYKSLIGVEYKPVSATGAEDKDKKKKEKENKSEKQNKPQKQNDGQRKDPSKNQGGGLSSS | the WHEP-PRS fragment rather than ERS-WHEP fragment in the EPRS more contributed to the Snail1 stability | 
